The values that follow come from patent publication US20220395548A1 (MOREHOUSE SCHOOL OF MEDICINE, published 2022).

By Kd is commonly meant the constant that tells how readily two partners part at equilibrium. A high value points to lower affinity. A word on the koff: it is the rate constant with which the complex falls apart. A low value points to slow dissociation. By kon is commonly meant a measure of how fast the partners come together.

The target in assay [1] is gp120 of HIV-1NL4-3 (on virus particles) (HIV-1 (NL4-3)). Description: cell-based or functional assay.
Assay [2] has as its target T1, purified HIV-1 gp120 (gp120-IIIB, Immuno Dx) (HIV-1 (IIIB), UniProt P04578 33-511).
T1 construct: domain: gp120; also called HIV gp120; purified gp120
Briefly: SPR (Biacore T200), gp120 amine-coupled to CM5 chip, MoMo30 flowed over; 1:1 model fit; three independent measurements in triplicate.

B1: MoMo30 protein from Momordica balsamina (purified from leaf extract, 30 kDa cutoff retentate) (other)
chain: GGIATYWGQDTREGRLTAACATGKFQIINIGFLSTFGNGRPPQVNLTRHCSPISNGCRNVSVGVLNCRNDGVKVMLSIGGPHGSYSLSSAAEAIDLADYIWNNFLGGRSTSLRPFGDVPLDGVDFRIERGQFSHYYTMVARRLHDYGRQCSRKVYLTAAPGCRFPDKYLTELLHTGLFDYVWVRFFDDRQCQYNSVNPSGFWWSWMRWINSIPARKFYVGIPASEEAGDGYVAPEVLIKEVLPFTKKFTNYGGVMLFDLSNDVQTNYSSIISNRV
notes: also called 30 kDa MoMo protein; hevamine A-related MoMo30 protein
For B1, the “IC50 of inhibition of HIV-1NL4-3 infectivity, MAGI cell assay” value in assay [1] stood at 0.0028 µM. In assay [2], the Kd came out at 6 µM, the koff is 0.00242 s⁻¹ and the kon amounted to 400 M⁻¹ s⁻¹.
